From the supplement of paper PMC9876800

Test system: peptide library, one residue held at a place counted from the S/T acceptor
Assay: relative phosphorylation of the sub-library (ratio to the mean residue at this position); higher = residue favoured
Details: human
In short: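 Purified recombinant kinases, either human or orthologue constructs, were incubated in 384-well plates with biotinylated degenerate peptide sub-libraries. Each sub-library fixed one residue at one position around a central Ser/Thr. Peptides at 50 μM and 50 μM ATP spiked with γ-32P-ATP were used for 90 min under kinase-specific conditions, and spots on streptavidin membranes were phosphorimaged and quantified by densitometry. Relative sub-library phosphorylation is expressed as a ratio to the mean residue at that position.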

Sequence of CDK14, construct: Full length (O94921 whole entry, looked up): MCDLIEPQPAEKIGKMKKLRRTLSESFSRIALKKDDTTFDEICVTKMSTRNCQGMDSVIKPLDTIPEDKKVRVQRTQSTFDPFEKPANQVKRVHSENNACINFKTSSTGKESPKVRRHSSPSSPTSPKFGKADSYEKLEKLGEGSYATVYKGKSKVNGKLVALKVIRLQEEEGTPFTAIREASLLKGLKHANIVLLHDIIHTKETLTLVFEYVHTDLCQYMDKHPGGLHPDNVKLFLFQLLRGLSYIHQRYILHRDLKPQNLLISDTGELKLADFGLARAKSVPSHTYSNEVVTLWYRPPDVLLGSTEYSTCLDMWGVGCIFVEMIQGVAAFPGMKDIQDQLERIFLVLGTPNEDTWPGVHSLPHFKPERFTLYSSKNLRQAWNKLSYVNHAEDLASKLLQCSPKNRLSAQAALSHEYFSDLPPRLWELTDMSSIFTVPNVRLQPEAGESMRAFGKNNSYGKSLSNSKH

CDK14, construct: Full length (from UniProt O94921)
relative phosphorylation
Details | at +1 | at +2 | at +3 | at +4 | at -1 | at -2 | at -3 | at -4 | at -5
A fixed | 0.252 | 0.535 | 0.827 | 0.626 | 0.896 | 0.722 | 0.989 | 0.958 | 0.859
D fixed | 0.129 | 0.365 | 0.343 | 0.472 | 0.376 | 0.251 | 0.328 | 0.625 | 0.582
E fixed | 0.123 | 0.292 | 0.266 | 0.344 | 0.366 | 0.258 | 0.438 | 0.592 | 0.521
F fixed | 0.298 | 0.793 | 1.44 | 0.708 | 0.704 | 0.777 | 0.768 | 0.725 | 0.798
G fixed | 1.29 | 0.619 | 0.785 | 1.64 | 2.02 | 0.774 | 1.29 | 1.08 | 1.13
H fixed | 0.294 | 1.19 | 0.793 | 1.08 | 0.835 | 0.972 | 0.974 | 0.978 | 1.34
I fixed | 0.332 | 1.25 | 1.03 | 0.677 | 0.324 | 0.749 | 0.879 | 1.39 | 1.22
K fixed | 0.38 | 2 | 0.937 | 1.84 | 1.44 | 1.14 | 1.09 | 1.59 | 1.78
L fixed | 0.392 | 1.39 | 2.38 | 0.74 | 1.04 | 1.29 | 0.839 | 1.2 | 1.23
M fixed | 0.345 | 1.1 | 1.97 | 0.88 | 1.36 | 1.11 | 0.875 | 0.942 | 1.06
N fixed | 0.247 | 0.858 | 0.6 | 1.04 | 0.873 | 0.701 | 0.75 | 1.19 | 1.15
P fixed | 11.4 | 0.665 | 1.28 | 1.07 | 1.77 | 2.49 | 1.43 | 1.01 | 0.957
Q fixed | 0.286 | 0.854 | 0.772 | 0.935 | 0.863 | 0.794 | 0.756 | 0.843 | 0.822
R fixed | 0.377 | 2.41 | 1.02 | 2.69 | 1.92 | 2.6 | 3 | 1.31 | 1.17
V fixed | 0.305 | 1.05 | 0.764 | 0.582 | 0.421 | 0.724 | 0.753 | 0.717 | 0.71
W fixed | 0.301 | 0.713 | 1.09 | 0.962 | 0.802 | 0.995 | 0.955 | 1.06 | 0.823
Y fixed | 0.257 | 0.92 | 0.698 | 0.714 | 0.984 | 0.648 | 0.884 | 0.78 | 0.865
pThr fixed | 0.511 | 0.842 | 0.801 | 0.524 | 0.457 | 0.755 | 0.839 | 0.879 | 0.885
pTyr fixed | 0.609 | 0.486 | 0.841 | 0.387 | 0.427 | 0.42 | 0.605 | 0.531 | 0.697
